Assay: protease stability score; higher = more stable; yeast display proteolysis, trypsin and chymotrypsin;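 note: relative to predicted unfolded state with 0 unfolded-like and 1 meaning tenfold more protease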

| Sequence | protease stability score |
| --- | --- |
| DEEDRKSERVLKEFLHDVLTGDEHTLNRLADPHVRLEVGDKEDHGREKLAKYMVRADHIEHVELRHHHFQGDKIHLHVKIRENVNGREVIFESIEIWLKIDGRWILDSLIVK | 0.091 |
| DEDEETITRTLEFQRESLRTGDWKFIHRLFDPDARFLINGRDRHGRDLLIDILRKLGVEKINLHVHRMSYVGDKMRVETELVVGDFIFDTRLFEEKVNGKWLMRSMEIH | 0.735 |
| REDEQLFHEMLRRVIHALLTGDEQILADLLDPRMRIMYDGVSRHGWHDFIEVLRDLGFDHLILKDYRIQGDYVRFHFIIEQGDKHHTVEIHVQIWDGKVEQIVVNYR | 2.04 |
| DEEEETLREMLRMSKEALETGDETELHELFDPNVRVVVDGVTLHGWEAWSQFLREIRLSIREVRIKRVDRVDGKIIIDGKFHRIIIQGDKTRENTIDAEVLIRKVDGKWVYEHDSYL | 0.823 |
| TEEQEESTRAYEEILQYIRTGDERQMTKYADPHVKLIFNGKEIHGREMFVELVKQYGIDHHHIHNWDFINGRVRMETHVRQGDKHDNAHIDMTKFDGKWIVRLFVFV | 0.856 |
| SEHEHMIQVALELWLHTLHTGDEHKEERLHDPHARLRIGDKELHGREDVIRWMRKVKNVTINRVEVRRINFQGDKAILLVRIDGEFDGRRIDTEVIIIVVKVDGRWLFESMEID | 1.31 |
| DEDTKTAWRMLHLSHKAIETGDEHLIKHLFDPHVRIHIDGVDLHGREELLTHLRHWRMVVEDEVSKDSKSYGDKITLDGHVDLTFEYNGRRVRVIFDTRIIIVKFNGRWLIKTIHFE | 0.512 |
| DEKEEVLEKLDRLVMEAMETGDWELITKNFDPNTRITINGRELIGRAEWHRFLEEMRHSIKDYRIRSKREYDGRIEVDTESHFIVNIDGKRIEYETRTHVIMTKIDGKWLFTSVEVR | 1.97 |
| SEDDEFIRFVSEIIEHILETGDEESLIKLADPNAQFIHIINGREIRYHGRHIFIEWWRRLGIDHLKIEDVRVEQQGDKMRTDFRVILRVGDKTIDSKLHFLIRKVDGKWHVESIKVEHR | 2.27 |
| DEDKEILHKMVEILRHALQTGDEDRLSEMFDPNVRLEINGREEWGREIFRDKHRQLGVDHLHIIIRRVHIQGEYAHIDTEYRIHVNGKTLETRVEVIALKIDGKWLIRQVIFT | 1.14 |
| DEDEREMERWFQEILEDLRTGDFRSISRMVDPHAKVDVNGQERHGREQVENLIRRFKNATIHITHVDLDVVNGKLVVRIDTRLHVDGQTRKTEIIVISNKVNGRWFMESLSFKIE | 0.904 |
| DELQRDSKQAVKLWSESVLTGDERVLKEMADPDPRVEVGEYSSHGMHEVKRLLREMRIEVEDFKDENVRVYGEKLVVDGILHIRIHINGRDEHIDRRAILIMVKVDGRWYFKSMVYR | 0.781 |
| DEETRATKRFLDEVLEARATGDWRTLTRNMDPHYRLEIGEKEVHGMEEVSHMVTEEMVRLGIKHSDLKIKDSRFYNGVLHLDGRLILEVNGVRLESDVTLVELKVNGRWQIRFERWE | 1.08 |
| HEEEEHSIRILEEWWRALLTGDEDRLKELMDPHVLLLSDVGDKNHIHIGREEAFRFWHEFVRQVKNMTLRIDQVHVQGDKVHLRGTLLINGRERDIRIDILIINGKVREVRIKII | 2.45 |
| SEDEEFAKRFFEILVHYHKTGDWEKRMKMADPNTRSDINGVHFHGREDIYRFEDELWREMGIDHVEFHVRDSDIQGDKLHLHTQVIIHVGNKHIELDERMILLKFNGQWVLESLEVK | 1.32 |
| SEDIKEIKDILRTMYEAFITGDWRTVAKLFDPHVRIEYDGVRLHGREHVEHFLRHLRERVEWHHIEDTQEQGDYIELHGRTILNIEIGDKRDRRDSHFILMMVKVDGRWLIHRIIIR | 2.21 |
| DEDTESATKALQLFIHLFITGDEEQLLRLLDPNARNDIGDYHRHGREFLEFFVERVKNVTFHLHDMRLELIGDKIHLIIHGDEWVNGVRLRTELVILMEKVNGRWVIRSVRVIFR | 1.75 |
| DEEEELLRRLIKMLLHLMRTGDEDETANLLDPNVRIEWNGRTFHGREEAKRWLFELLSRVDVVKDIKIHDYDRYGDFVLLDVRLHGEIDGVPTETIFIIIIRKINGRWMIHQIYLE | 1.42 |
| DHEHEEFEENLEHFEHHMKTGDFELLLKLADPHVKIHVNGRDYHGWEELKRVLETLGISKVKVEFHRIHLINGVAFNDGKMEVNGVHTKTHYVAKKVNGRWFMRSMEMN | 0.775 |
| DEEKKLSDFAFRLLEENLRTGNEDDIRRYADPSVKIEVGDKTIHGMEAVSRVITEWRVHDLKIEREEIQGNKVHIDSNIDGQVGEKREHSLLILIMVKVNGRWVIKSIRIH | 0.386 |
| SEEEKILKEIAHLLIRSLITGDWKILRDLMDPHTKIHILQGDKVHNFHGWKAMTETLKQKLDRIDHVNFELRHMEVFDGRVHIEGVLHLNFDGQERFTEVRIIVVVIDGKLKEFELRIH | 2.16 |
| SEERDHARRALNKMWKAIETGDEDTFEKLMDPDVRIEIGDKEIHGRELYVKIWQEMRFHIRRTRITDSKTFNGRVDIEFEEDFEIIVGDKIERYDYRVTFHSLKVNGRWEHSSMRLH | 0.202 |
| SHEKELNERAFRILIEELMTGDEDSWRKLADPNTRHIIDGQTYHGMDFFHEHVRKMGMTIHHVELEDYRFQGEKAVLILHIDGRQGEKHDKIRITIFIEKVDGRWILREVRIG | 1.17 |
| DEEKERSDRLYERFFTAIFTGDEDLIRKLLDPDTRYQIGDKSSHGRDDIYDRIREMRNKVPNLRWDIRHVRIQGEKVHLDVEFNVNGKRDEFHIELDIVNGRLRHIRIEPV | 1.24 |
| SEEERLAREISKELVEILLTGDEDRLLELADPDVRHILLFNGRDDDQHGRENMSRAEKLFREWLGVKHVDVTHVEVQGDKIHNDTVVDINGVRFEFRIIWVVVNGRVKVWRVEMR | 1.52 |

— the NTF2 design screens of Basanta et al. (2020)
